From patent publication US11491206 (DUKE UNIVERSITY, dated 2022) come the findings set out here.

The Kd is a measure of binding affinity in units of concentration.

The test has as its target T1, death receptor 5 (DR5) (UniProt O14763 56-182, limits assumed).
T1 construct: also called TRAIL Receptor 2; TRAILR2
Nature of the test: not stated (told in the legend of the schematic FIG. 1A).

T1 sequence (O14763 56-182 limits assumed): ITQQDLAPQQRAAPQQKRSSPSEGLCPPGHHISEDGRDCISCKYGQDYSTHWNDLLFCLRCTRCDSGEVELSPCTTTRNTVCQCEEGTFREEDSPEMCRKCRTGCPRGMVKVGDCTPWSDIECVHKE

B1: DRA monomer (single Tn3 type III fibronectin domain of tenascin engineered to bind death receptor 5) (designed binder)
chain: GAIEVKDVTDTTALITWAKPWVDPPPLWGCELTYGIKDVPGDRTTIDLQQKHTAYSIGNLKPDTEYEVSLICFDPYGMRSKPAKETFTT
notes: also called Tn3 monomer; monomer of the Tn3 domain
As to B1, the affinity, expressed as Kd, was 43 nM.
